This assay concerns the target thyrotropin receptor (TSHR) (UniProt P16473). Briefly: cell-based or functional assay.

The results in this text go back to patent US20190062396A1.

Chain of UniProt P16473 (P16473 21-764 limits assumed): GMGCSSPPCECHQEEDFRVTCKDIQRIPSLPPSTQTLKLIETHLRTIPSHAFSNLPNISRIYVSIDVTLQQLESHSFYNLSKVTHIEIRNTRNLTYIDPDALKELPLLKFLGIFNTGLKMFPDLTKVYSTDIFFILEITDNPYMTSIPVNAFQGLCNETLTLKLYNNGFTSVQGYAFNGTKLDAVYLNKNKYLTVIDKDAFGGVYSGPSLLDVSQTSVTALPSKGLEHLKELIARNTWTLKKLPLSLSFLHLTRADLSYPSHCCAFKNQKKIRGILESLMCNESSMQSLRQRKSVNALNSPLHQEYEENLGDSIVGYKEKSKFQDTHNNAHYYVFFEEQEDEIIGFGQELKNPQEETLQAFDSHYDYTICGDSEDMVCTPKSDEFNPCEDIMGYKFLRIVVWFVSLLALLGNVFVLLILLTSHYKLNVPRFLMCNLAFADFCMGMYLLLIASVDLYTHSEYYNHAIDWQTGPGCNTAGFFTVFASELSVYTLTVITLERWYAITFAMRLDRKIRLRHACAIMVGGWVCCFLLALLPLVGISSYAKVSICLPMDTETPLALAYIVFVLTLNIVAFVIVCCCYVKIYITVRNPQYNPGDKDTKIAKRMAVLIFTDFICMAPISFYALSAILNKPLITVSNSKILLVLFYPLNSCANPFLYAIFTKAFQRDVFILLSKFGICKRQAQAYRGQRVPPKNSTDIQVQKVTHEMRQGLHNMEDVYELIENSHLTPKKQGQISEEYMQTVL

Consider “recombinant human thyroid stimulating hormone (rhTSH) produced and purified by the method of the invention (from UniProt P01215 25-116; P01222 21-138) (ligand)”, for which the EC50 of cAMP induction (RLU, HitHunter cAMP XS+ luminescence) in CHO-K1 cells expressing TSHR, relative to the control group (Thyrogen) was 99%.
